Measurements published in patent US20020098541A1 (published 2002).

Experiments:
Experiment in all cases: co-immunoprecipitation from co-transfected 293 cell lysates: anti-FLAG IP, anti-HA immunoblot
FLAG tagged TRAF 6 = target: T1, FLAG tagged TRAF 6 (UniProt Q9Y4K3 1-522, limits assumed)
T1 sequence (looked up): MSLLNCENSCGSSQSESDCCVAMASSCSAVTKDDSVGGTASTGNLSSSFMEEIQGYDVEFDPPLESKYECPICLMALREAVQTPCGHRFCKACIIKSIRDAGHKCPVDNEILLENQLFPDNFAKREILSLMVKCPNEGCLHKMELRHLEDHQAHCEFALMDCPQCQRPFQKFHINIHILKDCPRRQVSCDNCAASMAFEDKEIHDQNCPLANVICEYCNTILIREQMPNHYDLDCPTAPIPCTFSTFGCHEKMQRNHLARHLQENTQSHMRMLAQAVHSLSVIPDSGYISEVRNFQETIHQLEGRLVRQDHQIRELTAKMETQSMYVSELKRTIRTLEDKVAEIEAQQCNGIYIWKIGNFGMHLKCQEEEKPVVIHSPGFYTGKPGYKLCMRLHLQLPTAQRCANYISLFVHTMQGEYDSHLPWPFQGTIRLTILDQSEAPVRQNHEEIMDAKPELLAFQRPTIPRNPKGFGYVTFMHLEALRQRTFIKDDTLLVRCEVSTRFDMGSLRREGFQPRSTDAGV
Method: (§1) For TRAF binding assays, 5×10⁵ 293 cells were transfected with 10 μg of HA tagged TR12 and 10 μg of FLAG tagged TRAF 1, 2, 3, 5, or 6 by the calcium phosphate method and cells were harvested 48 hours post transfection in lysis buffer (with 1% NP-40). Whole cell lysates were immunoprecipated with anti-FLAG M2 beads (Sigma, MO), washed 5× with lysis buffer (without BSA), boiled 5 minutes, separated by 10% SDS PAGE, transferred to nitrocellulose, probed with anti-HA HRP (Roche), and developed with ECL (Amersham).
(§2) Since NF-κB activation by TNFR superfamily members is mediated primarily by the TRAF family of signaling molecules, the ability of TR12 to bind any of the TRAF molecules was studied. 293 cells were co-transfected with a FLAG tagged TRAF expression plasmid and a hemagglutinin tagged TR12 expression plasmid.

FLAG tagged TRAF 5 = FLAG tagged TRAF 5 (UniProt O00463 1-557, limits assumed)
Chain of FLAG tagged TRAF 5 (O00463 whole entry): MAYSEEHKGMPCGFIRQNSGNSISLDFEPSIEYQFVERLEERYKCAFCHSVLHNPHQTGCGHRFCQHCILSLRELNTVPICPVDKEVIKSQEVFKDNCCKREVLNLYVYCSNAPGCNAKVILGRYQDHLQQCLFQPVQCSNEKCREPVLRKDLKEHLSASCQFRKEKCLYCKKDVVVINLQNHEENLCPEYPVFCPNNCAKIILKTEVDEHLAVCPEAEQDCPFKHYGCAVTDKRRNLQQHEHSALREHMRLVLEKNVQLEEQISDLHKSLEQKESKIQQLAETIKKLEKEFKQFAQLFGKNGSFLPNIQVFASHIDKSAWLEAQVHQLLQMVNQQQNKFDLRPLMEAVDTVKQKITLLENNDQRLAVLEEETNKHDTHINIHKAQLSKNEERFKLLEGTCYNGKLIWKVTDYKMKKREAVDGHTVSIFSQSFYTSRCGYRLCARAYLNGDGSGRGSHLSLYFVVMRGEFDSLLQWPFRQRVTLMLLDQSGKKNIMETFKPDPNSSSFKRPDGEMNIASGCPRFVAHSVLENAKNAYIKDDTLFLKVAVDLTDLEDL
Method: as §1, §2

FLAG tagged TRAF 3 = target: T2, FLAG tagged TRAF 3 (UniProt Q13114 1-568, limits assumed)
T2 sequence (looked up): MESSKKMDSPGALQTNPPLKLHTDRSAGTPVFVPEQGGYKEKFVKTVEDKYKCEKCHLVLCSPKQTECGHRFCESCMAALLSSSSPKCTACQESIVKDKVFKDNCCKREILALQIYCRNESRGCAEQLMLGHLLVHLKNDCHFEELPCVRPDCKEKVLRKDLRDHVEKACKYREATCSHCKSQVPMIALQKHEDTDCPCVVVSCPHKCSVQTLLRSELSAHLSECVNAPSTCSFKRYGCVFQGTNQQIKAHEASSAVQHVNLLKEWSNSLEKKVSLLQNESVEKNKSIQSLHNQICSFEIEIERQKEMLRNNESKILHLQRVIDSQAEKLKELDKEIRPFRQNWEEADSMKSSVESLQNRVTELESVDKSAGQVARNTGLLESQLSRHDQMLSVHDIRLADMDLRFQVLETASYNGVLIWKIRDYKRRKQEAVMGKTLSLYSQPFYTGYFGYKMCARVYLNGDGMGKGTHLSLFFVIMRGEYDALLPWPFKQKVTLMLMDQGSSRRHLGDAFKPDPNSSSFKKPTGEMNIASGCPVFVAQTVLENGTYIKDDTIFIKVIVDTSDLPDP
Method: as §1, §2

FLAG tagged TRAF 2 = target: T3, FLAG tagged TRAF 2 (UniProt Q12933 1-501, limits assumed)
T3 sequence (looked up): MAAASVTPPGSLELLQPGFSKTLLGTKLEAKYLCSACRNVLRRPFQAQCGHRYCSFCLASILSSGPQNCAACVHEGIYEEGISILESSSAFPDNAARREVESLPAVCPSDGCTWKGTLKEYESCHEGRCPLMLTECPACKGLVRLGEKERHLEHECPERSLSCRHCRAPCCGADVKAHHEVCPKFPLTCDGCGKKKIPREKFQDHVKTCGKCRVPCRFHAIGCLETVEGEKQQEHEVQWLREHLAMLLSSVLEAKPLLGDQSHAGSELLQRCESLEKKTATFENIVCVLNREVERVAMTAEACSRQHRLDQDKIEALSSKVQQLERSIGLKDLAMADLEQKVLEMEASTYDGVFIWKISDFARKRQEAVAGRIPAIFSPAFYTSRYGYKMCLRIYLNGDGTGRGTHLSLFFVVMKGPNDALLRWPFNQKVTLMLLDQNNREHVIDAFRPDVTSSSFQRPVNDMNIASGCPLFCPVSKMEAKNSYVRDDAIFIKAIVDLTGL
Method: as §1, §2

Measured: binding result

B1: HA tagged TR12 (TNFR Related Gene 12) (receptor)
chain: STTLWQCPPGEEPDLDPGQGTLCRPCPPGTFSAAWGSSPCQPHARCSLWRRLEAQVGMATRDTLCGDCWPGWFGPWGVPRVPCQPCSWAPLGTHGCDEWGRRARRGVEVAAGASSGGETRQPGNGTRAGGPEETAAQYAVIAIVPVFCLMGLLGILVCNLLKRKGYHCTAHKEVGPGPGGGGSGINPAYRTEDANEDTIGVLVRLITEKKENAAALEELLKEYHSKQLVQTSHRPVSKLPPAPPNVPHICPHRHHLHTVQGLASLSGPCCSRCSQKKWPEVLLSPEAVAATTPVPSLLPNPTRVPKAGAKAGRQGEITILSVGRFRVARIPEQRTSSMVSEVKTITEAGPSWGDLPDSPQPGLPPEQQALLGSGGSRTKWLKPPAENKAEENRYVVRLSESNLVI
notes: Expressed from a plasmid in transfected 293 cells and tested in whole cell lysate; It includes the predicted leader (about residues 1-25), which may be cleaved in cells; also called hemagglutinin tagged TR12; not shown: HA (hemagglutinin) tag
no binding: all assays above
